Assay results from patent US20190309034A1 (Boehringer Ingelheim, published 2019).
Where a chain is given by its changes, count along the chain named.

B1: Reference 2 (antibody, human IgG1, lambda, V domains shown)
VH: QVQLQQSGAEVKKPGSSVRVSCKASGGTFNNNAINWVRQAPGQGLEWMGGIIPMFGTAKYSQNFQGRVAITADESTGTASMELSSLRSEDTAVYYCARSRDLLLFPHHALSPWGRGTMVTVSS
VL: SSELTQDPAVSVALGQTVRVTCQGDSLRSYYASWYQQKPGQAPVLVIYGKNNRPSGIPDRFSGSSSGNTASLTITGAQAEDEADYYCSSRDSSGNHWVFGGGTELTVLG
notes: Comparator anti-BAFF antibody
B2: Reference 1 (antibody, human IgG4 S228P, kappa, V domains shown)
VH: QVQLQQWGAGLLKPSETLSLTCAVYGGSFSGYYWSWIRQPPGKGLEWIGEINHSGSTNYNPSLKSRVTISVDTSKNQFSLKLSSVTAADTAVYYCARGYYDILTGYYYYFDYWGQGTLVTVSS
VL: EIVLTQSPATLSLSPGERATLSCRASQSVSRYLAWYQQKPGQAPRLLIYDASNRATGIPARFSGSGSGTDSTLTISSLEPEDFAVYYCQQRSNWPRTFGQGTKVEIKR
notes: Comparator anti-BAFF antibody
B3: 235F5B9 (antibody, V domains shown)
VH: QVQLQQPGAELVKPGASVKLSCKASGYSFSTFFIHWIQQRPGRGLEWIGRIDPNSGATKYNEKFESKATLTVDKPSSTAYMHLSSLTSEDSAVYYCARGEDLLIRTDALDYWGQGTSVTVSS
VL: DIVMTQSQKIMSTTVGDRVSITCKASQNAGIDVAWFQQKPRQSPKLLIFSKSNRYTGVPDRFAGSGSGTDFTLTIYNVQSEDLADYFCLQYRSYPRTFGGGTKLEIK
notes: Mouse lead antibody (hybridoma)
B4: 13J018-1A4 (antibody, V domains shown)
VH: QVQLQQSGPEVVRPGASVKISCKAPDHIFSIHWMQWVRQRPGPGLEWIGEIFPGSGTTDYNEKFKGKATVTVDRGSRSAYMQFNSLTSEDSAVYFCASGAFDYWGQGTTLTVSS
VL: DIQMTQSPSSLSASLGERVSLTCRASQDIGNRLNWLQQEPDGTIKRLIYATSSLDSGVPKRFSGSRSGSDYSLTISSLESEDFVDYYCLQYASSPFTFGTGTKLEIK
notes: as for B3
B5: Ch-13J0-18-1A4 (antibody, V domains shown)
VH: B4 VH
VL: B4 VL
B6: Ch-235F5B9 (antibody, V domains shown)
VH: B3 VH
VL: B3 VL
B7: 206G9A10 (antibody, V domains shown)
VH: B3 VH with S28T, T31I, F33C, I37V, N54S, A57G, P75S, H82Q, I104V, L109M
VL: B3 VL with I10F, I31A, D32A, R41G, F49Y, K51A, A63T, Y76S, F87I, L89Q
notes: as for B3
B8: 217H12A7 (antibody, V domains shown)
VH: B3 VH with S28T, F33L, I37V, A57G, S66R, A68V, H82Q, I104L, L109M
VL: DIVMTQSQKFMSTTVGDRVSITCKASQNAGTAVAWFQQKPGQSPKLLIYSAFNRYTGVPDRFTGSGSGTDFTLTISNMQSEDLADYICQQYRSYPRTFGGGTKLEIK
notes: as for B3
B9: 227D5A7 (antibody, V domains shown)
VH: QVQLQQPGAELVKPGASVKLSCKASGYTFSIFCVHWVQQRPGRGLEWIGRIDPSSGGTKYNEKFESKATLTVDKSSSTAYMQLSSLTPEDSAVYYCARGEDLLVRTDALDYWGQGSSVTVSS
VL: B8 VL with T31A, F52S, M78V, Y94F
notes: as for B3
B10: 250E5A11 (antibody, V domains shown)
VH: B9 VH with A9T, V34I, K63R, S66N, P88F, L109M, S116T
VL: B8 VL with T31A, F52S, S76T, M78V, Y94F
notes: as for B3
B11: 227D3B11 (antibody, V domains shown)
VH: B3 VH with A57G, L109M
VL: B3 VL with K51T
notes: as for B3
B12: 214G4B7 (antibody, V domains shown)
VH: B3 VH with L11F, F33C, I37V, A57G, V72I, M81V, L109M
VL: B8 VL with Y49F, A51T, F52S, I87F, Q89L
notes: as for B3
B13: 210D9B8 (antibody, V domains shown)
VH: QVQLQQPGTEFVKPGASVKLSCEASGYTFITYWMHWVKQRPGRGLEWIGGIDPNSGVIKYNEKFKSKATLTVDKPSSTAYMQLSSLTSEDSAVYYCARGEDLLIRTDAMDYWGQGTSVTVSS
VL: DIVMTQSQKFVSTTLGDRVSITCKASQSVGIAVAWYQQKPGHSPNLLIFSTSNRYTGVPDRFTGSGSGTDFTLTISDVQSEDLADYFCQQYSRYPRTFGGGTKLEIK
notes: as for B3

target: T1, Recombinant soluble trimeric human BAFF (furin-cleaved human BAFF 134-285) (human, UniProt Q9Y275 134-285); assay: SPR, antibody captured on Protein A/G, soluble trimeric BAFF flowed over, 1:1 Langmuir global fit, apparent affinity
T1 construct: Made from His-tagged BAFF(72-285) by furin cleavage; trimeric status confirmed by analytical ultracentrifugation; also called Soluble trimeric huBAFF; soluble trimeric BAFF
Description: (§1) Apparent binding affinities were evaluated using surface plasmon resonance where the antibodies were captured at different surface densities on a Protein A/G surface. Soluble trimeric BAFF at different concentrations were flowed over the captured antibody. Clinical reference antibodies (Reference 1 comprising SEQ ID NOS: 98 and 116) and Reference 2 comprising SEQ ID NOS: 99 and 117) were used as comparators.

| Binder | Kd [nM] |
| --- | --- |
| B1 | 0.0222 |

target: T1, Recombinant soluble trimeric human BAFF …; assay: cell-based or functional assay

| Binder | IC50 (neutralisation of soluble trimeric huBAFF activation of human BAFFR, luciferase reporter CHO cells) [nM] | IC90 (neutralisation of soluble trimeric huBAFF activation of human BAFFR, luciferase reporter CHO cells) [nM] |
| --- | --- | --- |
| B2 | 0.12 | – |
| B3 | 0.11 | 0.21 |
| B4 | 0.11 | 0.35 |
| B1 | 0.22 | – |
| B5 | 0.16 | 0.45 |
| B6 | 0.13 | 0.27 |

target: T1, Recombinant soluble trimeric human BAFF …; assay: cell-based or functional assay; remark: another data set of the same source

| Binder | Soluble trimeric huBAFF (52 pM) Neutralization IC90 [pM] |
| --- | --- |
| B2 | 290 |
| B7 | 35.1 |
| B8 | 129 |
| B9 | 56.8 |
| B10 | 97.5 |
| B11 | 128 |
| B12 | 296 |
| B3 | 107 |
| B13 | 156 |
| B4 | 305 |
| B1 | 1000 |

target: T2, Recombinant soluble 60-mer human BAFF (His-HuBAFF 134-285) (human, UniProt Q9Y275 134-285); assay: cell-based or functional assay

| Binder | Soluble 60-mer huBAFF (4.2 pM) Neutralization IC90 [pM] |
| --- | --- |
| B2 | 21 |
| B7 | 0.2 |
| B8 | 13.4 |
| B9 | 0.8 |
| B10 | 0.3 |
| B11 | 1.6 |
| B12 | 3 |
| B3 | 2.2 |
| B13 | 14 |
| B4 | 23 |

target: T1, Recombinant soluble trimeric human BAFF …; assay: SPR, antibody captured on Protein A/G, soluble trimeric BAFF flowed over, 1:1 Langmuir global fit, apparent affinity (at detection limit)
Description: as §1

| Binder | Kd [nM] |
| --- | --- |
| B2 | < 0.01 |
| B7 | < 0.01 |
| B8 | < 0.01 |
| B9 | < 0.01 |
| B10 | < 0.01 |
| B11 | < 0.01 |
| B12 | < 0.01 |
| B3 | < 0.01 |
| B13 | < 0.01 |
| B4 | < 0.01 |

target: T3, Human membrane-bound BAFF (mbBAFF) (human, UniProt Q9Y275 1-285); assay: cell-based or functional assay

| Binder | Potent mbBAFF Neutralization IC50 [nM] | Potent mbBAFF Neutralization IC90 [nM] |
| --- | --- | --- |
| B2 | 0.177 | 1.05 |
| B1 | 2.18 | 151 |

target: T1, Recombinant soluble trimeric human BAFF …; assay: cell-based or functional assay; remark: another data set of the same source

| Binder | Soluble trimeric huBAFF (50 pM) Neutralization IC90 [pM] |
| --- | --- |
| B2 | 290 |
| B1 | 1000 |

target: T2, Recombinant soluble 60-mer human BAFF …; assay: cell-based or functional assay; remark: another data set of the same source

| Binder | Soluble 60-mer huBAFF (4 pM) Neutralization IC50 [pM] | Soluble 60-mer huBAFF (4 pM) Neutralization IC90 [pM] |
| --- | --- | --- |
| B2 | 40 | 102 |
| B1 | 38300 | 198000 |

target: T3, Human membrane-bound BAFF (mbBAFF); assay: cell-based or functional assay; remark: another data set of the same source

| Binder | IC50 (neutralisation of mbBAFF activation of human BAFFR, fixed mbBAFF-CHO mixed with luciferase reporter BAFFR-CHO cells) [nM] |
| --- | --- |
| B2 | 0.21 |
| B3 | 0.18 |
| B4 | 0.29 |
| B1 | 8.6 |
| B5 | 0.41 |
| B6 | 0.19 |
